Experimental data: patent US20200032265, “Oligonucleotide Probes and Uses Thereof” (CARIS SCIENCE, INC., published 2020)

Target: T1, EpCAM (UniProt P16422 P16422:24-265)
T1 sequence: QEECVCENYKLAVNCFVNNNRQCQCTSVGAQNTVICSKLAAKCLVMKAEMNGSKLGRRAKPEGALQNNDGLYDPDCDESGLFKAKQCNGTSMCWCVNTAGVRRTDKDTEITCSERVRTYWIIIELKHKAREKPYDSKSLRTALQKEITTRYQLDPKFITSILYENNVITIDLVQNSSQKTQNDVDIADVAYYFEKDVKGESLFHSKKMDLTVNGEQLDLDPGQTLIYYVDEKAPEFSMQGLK
Assay: stated only; no assay details

B1: Aptamer 4 (ssDNA)
DNA: CCCCCCGAATCACATGACTTGGGCGGGGGTCG
modifications: 6-T 3' tail as spacer for biotin (shown in figure)
binding result: binds
